Measured values published in patent US9625458B2, “Biosensor” (priority 2002, dated 2017).
Substitutions are numbered along the chain they refer to. In names and notes the source's numbering stands.

B1: phosphate BP S39C JPW4045 (conjugate, UniProt P0AG82 26-346, looked up, variant S39C)
Phosphate-binding protein PstS: EASLTGAGATFPAPVYAKWADTYQKETGNKVNYQGIGSCGGVKQIIANTVDFGASDAPLSDEKLAQEGLFQFPTVIGGVVLAVNIPGLKSGELVLDGKTLGDIYLGKIKKWDDEAIAKLNPGLKLPSQNIAVVRRADGSGTSFVFTSYLAKVNEEWKNNVGTGSTVKWPIGLGGKGNDGIAAFVQRLPGAIGYVEYAYAKQNNLAYTKLISADGKPVSPTEENFANAAKGADWSKTFAQDLTNQKGEDAWPITSTTFILIHKDQKKPEQGTEVLKFFDWAYKTGAKQANDLDYASLPDSVVEQVRAAWKTNIKDSSGKPLY
modifications: JPW4045 dye conjugate
B2: phosphate BP S39C Fluorescein (conjugate, UniProt P0AG82 26-346, looked up, variant S39C)
Phosphate-binding protein PstS: B1 Phosphate-binding protein PstS
modifications: fluorescein conjugate
B3: phosphate BP S39C Acrylodan (conjugate, UniProt P0AG82 26-346, looked up, variant S39C)
Phosphate-binding protein PstS: B1 Phosphate-binding protein PstS
modifications: acrylodan conjugate
B4: phosphate BP S39C NBD (conjugate, UniProt P0AG82 26-346, looked up, variant S39C)
Phosphate-binding protein PstS: B1 Phosphate-binding protein PstS
modifications: NBD dye conjugate
B5: ribose BP A234C JPW4039 (conjugate, UniProt P02925 26-296, looked up, variant A234C)
Ribose import binding protein …: KDTIALVVSTLNNPFFVSLKDGAQKEADKLGYNLVVLDSQNNPAKELANVQDLTVRGTKILLINPTDSDAVGNAVKMANQANIPVITLDRQATKGEVVSHIASDNVLGGKIAGDYIAKKAGEGAKVIELQGIAGTSAARERGEGFQQAVAAHKFNVLASQPADFDRIKGLNVMQNLLTAHPDVQAVFAQNDEMALGALRALQTAGKSDVMVVGFDGTPDGEKAVNDGKLAATICQLPDQIGAKGVETADKVLKGEKVQAKYPVDLKLVVKQ
modifications: JPW4039 dye conjugate
B6: ribose BP T135C JPW4042 (conjugate, UniProt P02925 26-296, looked up, variant T135C)
Ribose import binding protein …: B5 Ribose import binding protein … with T135C, C234A
modifications: JPW4042 dye conjugate
B7: ribose BP L265C JPW4045 (conjugate, UniProt P02925 26-296, looked up, variant L265C)
Ribose import binding protein …: B5 Ribose import binding protein … with C234A, L265C
modifications: JPW4045 label
B8: ribose BP L265C NBD (conjugate, UniProt P02925 26-296, looked up, variant L265C)
Ribose import binding protein …: B5 Ribose import binding protein … with C234A, L265C
modifications: NBD dye conjugate
B9: ribose BP T135C Acrylodan (conjugate, UniProt P02925 26-296, looked up, variant T135C)
Ribose import binding protein …: B5 Ribose import binding protein … with T135C, C234A
modifications: acrylodan conjugate
B10: ribose BP D165C JPW4042 (conjugate, UniProt P02925 26-296, looked up, variant D165C)
Ribose import binding protein …: B5 Ribose import binding protein … with D165C, C234A
modifications: JPW4042 dye conjugate
B11: ribose BP E192C JPW4039 (conjugate, UniProt P02925 26-296, looked up, variant E192C)
Ribose import binding protein …: B5 Ribose import binding protein … with E192C, C234A
modifications: JPW4039 dye label
B12: ribose BP D165C JPW4045 (conjugate, UniProt P02925 26-296, looked up, variant D165C)
Ribose import binding protein …: B5 Ribose import binding protein … with D165C, C234A
modifications: JPW4045 label
B13: ribose BP L236C Fluorescein (conjugate, UniProt P02925 26-296, looked up, variant L236C)
Ribose import binding protein …: B5 Ribose import binding protein … with C234A, L236C
modifications: fluorescein conjugate
B14: ribose BP A234C NBD (conjugate, UniProt P02925 26-296, looked up, variant A234C)
Ribose import binding protein …: B5 Ribose import binding protein …
modifications: NBD conjugate
B15: ribose BP A234C JPW4042 (conjugate, UniProt P02925 26-296, looked up, variant A234C)
Ribose import binding protein …: B5 Ribose import binding protein …
modifications: JPW4042 dye conjugate
B16: ribose BP L265C Acrylodan (conjugate, UniProt P02925 26-296, looked up, variant L265C)
Ribose import binding protein …: B5 Ribose import binding protein … with C234A, L265C
modifications: acrylodan conjugate
B17: ribose BP L236C JPW4042 (conjugate, UniProt P02925 26-296, looked up, variant L236C)
Ribose import binding protein …: B5 Ribose import binding protein … with C234A, L236C
modifications: JPW4042 dye conjugate
B18: ribose BP E192C NBD (conjugate, UniProt P02925 26-296, looked up, variant E192C)
Ribose import binding protein …: B5 Ribose import binding protein … with E192C, C234A
modifications: NBD dye conjugate
B19: ribose BP L265C JPW4042 (conjugate, UniProt P02925 26-296, looked up, variant L265C)
Ribose import binding protein …: B5 Ribose import binding protein … with C234A, L265C
modifications: JPW4042 label
B20: ribose BP L236C JPW4039 (conjugate, UniProt P02925 26-296, looked up, variant L236C)
Ribose import binding protein …: B5 Ribose import binding protein … with C234A, L236C
modifications: JPW4039 dye conjugate
B21: ribose BP L236C JPW4045 (conjugate, UniProt P02925 26-296, looked up, variant L236C)
Ribose import binding protein …: B5 Ribose import binding protein … with C234A, L236C
modifications: JPW4045 dye label
B22: ribose BP L236C NBD (conjugate, UniProt P02925 26-296, looked up, variant L236C)
Ribose import binding protein …: B5 Ribose import binding protein … with C234A, L236C
modifications: NBD label
B23: ribose BP T135C NBD (conjugate, UniProt P02925 26-296, looked up, variant T135C)
Ribose import binding protein …: B5 Ribose import binding protein … with T135C, C234A
modifications: NBD dye conjugate
B24: ribose BP T135C Fluorescein (conjugate, UniProt P02925 26-296, looked up, variant T135C)
Ribose import binding protein …: B5 Ribose import binding protein … with T135C, C234A
modifications: fluorescein conjugate
B25: ribose BP D165C Acrylodan (conjugate, UniProt P02925 26-296, looked up, variant D165C)
Ribose import binding protein …: B5 Ribose import binding protein … with D165C, C234A
modifications: acrylodan conjugate
B26: ribose BP D165C JPW4039 (conjugate, UniProt P02925 26-296, looked up, variant D165C)
Ribose import binding protein …: B5 Ribose import binding protein … with D165C, C234A
modifications: JPW4039 dye conjugate
B27: ribose BP A234C Acrylodan (conjugate, UniProt P02925 26-296, looked up, variant A234C)
Ribose import binding protein …: B5 Ribose import binding protein …
modifications: acrylodan label
B28: ribose BP L265C JPW4039 (conjugate, UniProt P02925 26-296, looked up, variant L265C)
Ribose import binding protein …: B5 Ribose import binding protein … with C234A, L265C
modifications: JPW4039 label
B29: ribose BP E192C Fluorescein (conjugate, UniProt P02925 26-296, looked up, variant E192C)
Ribose import binding protein …: B5 Ribose import binding protein … with E192C, C234A
modifications: fluorescein label

Test: Fluorescence emission spectra without and with saturating ligand (wavelength shift, ΔIstd, ΔRmax)
Set-up: key to ΔIstd: intensity change at λstd normalized to average intensity; key to ΔRmax: ratio change of two emission band areas, unbound vs saturated
Conditions: standard intensity change, unbound vs ligand-saturated
Procedure: Fluorimetry. All measurements were conducted with an SLM Aminco-Bowman series 2 fluorimeter, with sample stirring at 25° C. Fluorescence emission spectra were acquired with excitation and emission slit widths of 4 and 8 nm, respectively. Photomultiplier tube potential was maintained between 400 and 800 volts. Protein concentrations were in the range of 50 to 1000 nM. Fluorophore-specific excitation was at the following approximate wavelengths: tryptophan, 290 nm; acrylodan, 390 nm; fluorescein, 485 nm; pyrene, 340 nm; NBD and NBDE, 490 nm; JPW4039, 485 nm; JPW4042, 470 nm; JPW4045, 470 nm.
Assessment of fluorescent biosensor function. Fluorescence emission spectra of bPBP-fluorophore conjugates were recorded in the absence and presence of saturating ligand concentrations. Spectral changes were characterized by four parameters: wavelength shift (the difference between the wavelengths of emission maximum in the unbound and ligand-saturated states), direction of intensity change (increase or decrease in intensity at the wavelengths of maximum emission in the two states), standard intensity change (ΔIstd), and standard ratiometric change (ΔR). ΔIstd is defined as the normalized intensity change relative to the average intensity, determined at the wavelength mid-point between the two emission maxima:
[formula] where λstd=(λmax, unbound+λmax, saturated)/2 and I1, I2 are the fluorescence intensities at λstd of each spectrum respectively (FIG. 4A). ΔR is defined in terms of two emission bands, A1 ([λ1, λ2]) and A2 ([λ3, λ4]) (FIG. 4B):
[formula] where ^∘A1, […] the areas in the absence of ligand, and ^∞A1, ^∞A2 the areas in the presence of saturating ligand. A computer program was used to enumerate ΔR for all possible pairs of wavelength bands in the two spectra, to identify the optimal sensing condition, defined as the maximum value of ΔR. Adjustable parameters of the algorithm, and their values used for ΔRmax quantities reported here, are: step size (2 nm), step width (10 nm), minimum integration area limit (fraction of total: 0.1), and maximum integration area limit (fraction of total: 1).

Row | Molecule | ΔIstd
1 | B1 | 0.18
2 | B2 | 0.03
3 | B3 | 0.10
4 | B4 | 0.18
5 | B5 | 0.37
6 | B6 | 0.02
7 | B7 | 0.02
8 | B8 | 0.01
9 | B9 | 0.31
10 | B10 | 0.06
11 | B11 | 0.44
12 | B12 | 0.04
13 | B13 | 0.02
14 | B14 | 0.28
15 | B15 | 0.06
16 | B16 | 0.20
17 | B17 | 0.55
18 | B18 | 0.00
19 | B19 | 0.91
20 | B20 | 0.08
21 | B21 | 0.25
22 | B22 | 0.11
23 | B23 | 0.08
24 | B24 | 0.18
25 | B25 | 0.00
26 | B26 | 0.13
27 | B27 | 0.01
28 | B28 | 0.01
29 | B29 | 0.12

Same assay, conditions: standard ratiometric change, unbound vs ligand-saturated

Row | Molecule | ΔRmax
30 | B1 | 4.13
31 | B2 | 0.21
32 | B3 | 0.80
33 | B4 | 0.57
34 | B5 | 1.29
35 | B6 | 0.35
36 | B7 | 0.12
37 | B8 | 0.13
38 | B9 | 6.26
39 | B10 | 0.27
40 | B11 | 0.34
41 | B12 | 0.77
42 | B13 | 0.29
43 | B14 | 1.63
44 | B15 | 0.99
45 | B16 | 0.70
46 | B17 | 3.58
47 | B18 | 1.67
48 | B19 | 2.13
49 | B20 | 0.29
50 | B21 | 1.70
51 | B22 | 1.96
52 | B23 | 0.22
53 | B24 | 1.79
54 | B25 | 0.37
55 | B26 | 0.36
56 | B27 | 1.18
57 | B28 | 0.11
58 | B29 | 1.31
